Test results: US20190151365A1 (Novartis, published 2019)

Columns and labels:
[1] = biological target: T1, human PD-1 (human, UniProt Q15116 25-167, limits assumed); assay: Biacore (SPR)
T1 construct: also called Programmed Death 1
From the text: PDR-001 was characterized in vitro for its affinity and activity on human PD-1. PDR-001 was expressed in a CHO cell line. PDR-001 bound with high affinity to human PD-1. […] In lymphocyte stimulation assays using human blood ex vivo, PDR-001 enhanced interleukin-2 (IL-2) production by approximately 2 fold in response to super antigen stimulation with Staphylococcus enterotoxin B (SEB).

[2] = biological target: T1, human PD-1; assay: cell-based or functional assay
[3] = biological target: T2, cynomolgus monkey PD-1 (cynomolgus monkey, UniProt B0LAJ3 25-170); assay: method not stated for this value (human value by Biacore)
T2 construct: also called cynomolgus PD-1
T2 sequence (B0LAJ3 entry or part of it limits assumed, form in doubt): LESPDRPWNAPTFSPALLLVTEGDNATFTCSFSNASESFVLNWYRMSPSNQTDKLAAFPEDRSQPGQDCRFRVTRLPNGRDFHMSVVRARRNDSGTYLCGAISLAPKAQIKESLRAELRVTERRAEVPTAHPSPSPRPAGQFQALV

T1 sequence (Q15116 25-167 limits assumed): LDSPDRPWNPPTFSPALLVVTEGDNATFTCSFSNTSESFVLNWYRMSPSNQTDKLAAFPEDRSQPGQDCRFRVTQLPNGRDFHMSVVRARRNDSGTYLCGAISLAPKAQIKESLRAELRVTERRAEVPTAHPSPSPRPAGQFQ

Kd [1]: 0.83 nM
Kd [3]: 0.93 nM
B1: PDR-001 (antibody, IgG4, V domains shown)
VH: EVQLVQSGAEVKKPGESLRISCKGSGYTFTTYWMHWVRQATGQGLEWMGNIYPGTGGSNFDEKFKNRVTITADKSTSTAYMELSSLRSEDTAVYYCTRWTTGTGAYWGQGTTVTVSS
VL: EIVLTQSPATLSLSPGERATLSCKSSQSLLDSGNQKNFLTWYQQKPGQAPRLLIYWASTRESGVPSRFSGSGSGTDFTFTISSLEAEDAATYYCQNDYSYPYTFGQGTKVEIK
notes: also called BAP049-Clone-E (variable regions)
interleukin-2 (IL-2) production in lymphocyte stimulation assays using human blood ex vivo, super antigen stimulation with Staphylococcus enterotoxin B (SEB) [2]: ~2 fold
